Source: US20240261333A1, “NOVEL TARGETS FOR ENHANCING ANTI-TUMOR IMMUNITY” (THE BROAD INSTITUTE, INC., priority 2021, published 2024)

T1: B3GNT2 (Homo sapiens, UniProt Q9NY97)
T1 construct: The respective ORFs of candidate genes [CD274 (NM_014143), MCL1 (NM_021960), JUNB (NM_002229), and B3GNT2 (NM_006577)] were synthesized; expressed in transfected cells; host or cells: A375 melanoma cells (lentiviral ORF overexpression)
T1 sequence (Q9NY97 1-397): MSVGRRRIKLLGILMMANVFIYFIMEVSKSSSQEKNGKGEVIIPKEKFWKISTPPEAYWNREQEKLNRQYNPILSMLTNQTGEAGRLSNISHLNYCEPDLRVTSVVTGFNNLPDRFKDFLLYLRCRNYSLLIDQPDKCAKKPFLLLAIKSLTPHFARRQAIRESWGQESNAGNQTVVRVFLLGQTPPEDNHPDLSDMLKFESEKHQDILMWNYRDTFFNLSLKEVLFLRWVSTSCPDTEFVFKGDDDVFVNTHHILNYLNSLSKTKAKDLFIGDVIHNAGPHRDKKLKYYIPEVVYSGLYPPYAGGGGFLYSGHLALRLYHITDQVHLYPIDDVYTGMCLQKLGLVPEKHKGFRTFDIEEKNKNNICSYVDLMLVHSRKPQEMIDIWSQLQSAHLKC

B1: FAM3C (protein)
chain: QVFEIKMDASLGNLFARSALDTAARSTKPPRYKCGISKACPEKHFAFKMASGAANVVGPKICLEDNVLMSGVKNNVGRGINVALANGKTGEVLDTKYFDMWGGDVAPFIEFLKAIQDGTIVLMGTYDDGATKLNDEARRLIADLGSTSITNLGFRDNWVFCGGKGIKTKSPFEQHIKNNKDTNKYEGWPEVVEMEGCIPQKQD
B2: HSD17B12 (protein)
chain: MESALPAAGFLYWVGAGTVAYLALRISYSLFTALRVWGVGNEAGVGPGLGEWAVVTGSTDGIGKSYAEELAKHGMKVVLISRSKDKLDQVSSEIKEKFKVETRTIAVDFASEDIYDKIKTGLAGLEIGILVNNVGMSYEYPEYFLDVPDLDNVIKKMININILSVCKMTQLVLPGMVERSKGAILNISSGSGMLPVPLLTIYSATKTFVDFFSQCLHEEYRSKGVFVQSVLPYFVATKLAKIRKPTLDKPSPETFVKSAIKTVGLQSRTNGYLIHALMGSIISNLPSWIYLKIVMNMNKSTRAHYLKKTKKN
B3: MYL9 (protein)
chain: SSKRAKAKTTKKRPQRATSNVFAMFDQSQIQEFKEAFNMIDQNRDGFIDKEDLHDMLASLGKNPTDEYLEGMMSEAPGPINFTMFLTMFGEKLNGTDPEDVIRNAFACFDEEASGFIHEDHLRELLTTMGDRFTDEEVDEMYREAPIDKKGNFNYVEFTRILKHGAKDKDD
B4: HYOU1 (protein)
chain: LAVMSVDLGSESMKVAIVKPGVPMEIVLNKESRRKTPVIVTLKENERFFGDSAASMAIKNPKATLRYFQHLLGKQADNPHVALYQARFPEHELTFDPQRQTVHFQISSQLQFSPEEVLGMVLNYSRSLAEDFAEQPIKDAVITVPVFFNQAERRAVLQAARMAGLKVLQLINDNTATALSYGVFRRKDINTTAQNIMFYDMGSGSTVCTIVTYQMVKTKEAGMQPQLQIRGVGFDRTLGGLEMELRLRERLAGLFNEQRKGQRAKDVRENPRAMAKLLREANRLKTVLSANADHMAQIEGLMDDVDFKAKVTRVEFEELCADLFERVPGPVQQALQSAEMSLDEIEQVILVGGATRVPRVQEVLLKAVGKEELGKNINADEAAAMGAVYQAAALSKAFKVKPFVVRDAVVYPILVEFTREVEEEPGIHSLKHNKRVLFSRMGPYPQRKVITFNRYSHDFNFHINYGDLGFLGPEDLRVFGSQNLTTVKLKGVGDSFKKYPDYESKGIKAHFNLDESGVLSLDRVESVFETLVEDSAEEESTLTKLGNTISSLFGGGTTPDAKENGTDTVQEEEESPAEGSKDEPGEQVELKEEAEAPVEDGSQPPPPEPKGDATPEGEKATEKENGDKSEAQKPSEKAEAGPEGVAPAPEGEKKQKPARKRRMVEEIGVELVVLDLPDLPEDKLAQSVQKLQDLTLRDLEKQEREKAANSLEAFIFETQDKLYQPEYQEVSTEEQREEISGKLSAASTWLEDEGVGATTVMLKEKLAELRKLCQGLFFRVEERKKWPERLSALDNLLNHSSMFLKGARLIPEMDQIFTEVEMTTLEKVINETWAWKNATLAEQAKLPATEKPVLLSKDIEAKMMALDREVQYLLNKAKFTKPRPRPKDKNGTRAEPPLNASASDQGEKVIPPAGQTEDAEPISEPEKVETGSEPGDTEPLELGGPGAEPEQKEQSTGQKRPLKNDEL
B5: CALR (protein)
chain: EPAVYFKEQFLDGDGWTSRWIESKHKSDFGKFVLSSGKFYGDEEKDKGLQTSQDARFYALSASFEPFSNKGQTLVVQFTVKHEQNIDCGGGYVKLFPNSLDQTDMHGDSEYNIMFGPDICGPGTKKVHVIFNYKGKNVLINKDIRCKDDEFTHLYTLIVRPDNTYEVKIDNSQVESGSLEDDWDFLPPKKIKDPDASKPEDWDERAKIDDPTDSKPEDWDKPEHIPDPDAKKPEDWDEEMDGEWEPPVIQNPEYKGEWKPRQIDNPDYKGTWIHPEIDNPEYSPDPSIYAYDNFGVLGLDLWQVKSGTIFDNFLITNDEAYAEEFGNETWGVTKAAEKQMKDKQDEEQRLKEEEEDKKRKEEEEAEDKEDDEDKDEDEEDEEDKEEDEEEDVPGQAKDEL
B6: PRDX2 (protein)
chain: ASGNARIGKPAPDFKATAVVDGAFKEVKLSDYKGKYVVLFFYPLDFTFVCPTEIIAFSNRAEDFRKLGCEVLGVSVDSQFTHLAWINTPRKEGGLGPLNIPLLADVTRRLSEDYGVLKTDEGIAYRGLFIIDGKGVLRQITVNDLPVGRSVDEALRLVQAFQYTDEHGEVCPAGWKPGSDTIKPNVDDSKEYFSKHN
B7: SLC25A4 (protein)
chain: GDHAWSFLKDFLAGGVAAAVSKTAVAPIERVKLLLQVQHASKQISAEKQYKGIIDCVVRIPKEQGFLSFWRGNLANVIRYFPTQALNFAFKDKYKQLFLGGVDRHKQFWRYFAGNLASGGAAGATSLCFVYPLDFARTRLAADVGKGAAQREFHGLGDCIIKIFKSDGLRGLYQGFNVSVQGIIIYRAAYFGVYDTAKGMLPDPKNVHIFVSWMIAQSVTAVAGLVSYPFDTVRRRMMMQSGRKGADIMYTGTVDCWRKIAKDEGAKAFFKGAWSNVLRGMGGAFVLVLYDEIKKYV
B8: PIP (protein)
chain: QDNTRKIIIKNFDIPKSVRPNDEVTAVLAVQTELKECMVVKTYLISSIPLQGAFNYKYTACLCDDNPKTFYWDFYTNRTVQIAAVVDVIRELGICPDDAAVIPIKNNRFYTIEILKVE
B9: TGM3 (protein)
chain: AALGVQSINWQTAFNRQAHHTDKFSSQELILRRGQNFQVLMIMNKGLGSNERLEFIVSTGPYPSESAMTKAVFPLSNGSSGGWSAVLQASNGNTLTISISSPASAPIGRYTMALQIFSQGGISSVKLGTFILLFNPWLNVDSVFMGNHAEREEYVQEDAGIIFVGSTNRIGMIGWNFGQFEEDILSICLSILDRSLNFRRDAATDVASRNDPKYVGRVLSAMINSNDDNGVLAGNWSGTYTGGRDPRSWNGSVEILKNWKKSGFSPVRYGQCWVFAGTLNTALRSLGIPSRVITNFNSAHDTDRNLSVDVYYDPMGNPLDKGSDSVWNFHVWNEGWFVRSDLGPSYGGWQVLDATPQERSQGVFQCGPASVIGVREGDVQLNFDMPFIFAEVNADRITWLYDNTTGKQWKNSVNSHTIGRYISTKAVGSNARMDVTDKYKYPEGSDQERQVFQKALGKLKPNTPFAATSSMGLETEEQEPSIIGKLKVAGMLAVGKEVNLVLLLKNLSRDTKTVTVNMTAWTIIYNGTLVHEVWKDSATMSLDPEEEAEHPIKISYAQYEKYLKSDNMIRITAVCKVPDESEVVVERDIILDNPTLTLEVLNEARVRKPVNVQMLFSNPLDEPVRDCVLMVEGSGLLLGNLKIDVPTLGPKEGSRVRFDILPSRSGTKQLLADFSCNKFPAIKAMLSIDVAE
B10: FAM3A (protein)
chain: FPRIQQLFTSPESSVTAAPRARKYKCGLPQPCPEEHLAFRVVSGAANVIGPKICLEDKMLMSSVKDNVGRGLNIALVNGVSGELIEARAFDMWAGDVNDLLKFIRPLHEGTLVFVASYDDPATKMNEETRKLFSELGSRNAKELAFRDSWVFVGAKGVQNKSPFEQHVKNSKHSNKYEGWPEALEMEGCIPRRSTAS
B11: SLC25A13 (protein)
chain: AAAKVALTKRADPAELRTIFLKYASIEKNGEFFMSPNDFVTRYLNIFGESQPNPKTVELLSGVVDQTKDGLISFQEFVAFESVLCAPDALFMVAFQLFDKAGKGEVTFEDVKQVFGQTTIHQHIPFNWDSEFVQLHFGKERKRHLTYAEFTQFLLEIQLEHAKQAFVQRDNARTGRVTAIDFRDIMVTIRPHVLTPFVEECLVAAAGGTTSHQVSFSYFNGFNSLLNNMELIRKIYSTLAGTRKDVEVTKEEFVLAAQKFGQVTPMEVDILFQLADLYEPRGRMTLADIERIAPLEEGTLPFNLAEAQRQQKASGDSARPVLLQVAESAYRFGLGSVAGAVGATAVYPIDLVKTRMQNQRSTGSFVGELMYKNSFDCFKKVLRYEGFFGLYRGLLPQLLGVAPEKAIKLTVNDFVRDKFMHKDGSVPLAAEILAGGCAGGSQVIFTNPLEIVKIRLQVAGEITTGPRVSALSVVRDLGFFGIYKGAKACFLRDIPFSAIYFPCYAHVKASFANEDGQVSPGSLLLAGAIAGMPAASLVTPADVIKTRLQVAARAGQTTYSGVIDCFRKILREEGPKALWKGAGARVFRSSPQFGVTLLTYELLQRWFYIDFGGVKPMGSEPVPKSRINLPAPNPDHVGGYKLAVATFAGIENKFGLYLPLFKPSVSTSKAIGGGP

What follows are molecules tested against T1, B3GNT2 (assay: Co-IP of FLAG-tagged B3GNT2 followed by mass spectrometry). Settings: Co-IP with FLAG antibody, C-terminally FLAG-tagged B3GNT2; mass spectrometry count, unit not given.
Type: cell-based
Set-up: C-term IgG / C-term flag: unit not given here
In short: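 Co-purifying proteins were identified by fractionated nano-LC–MS/MS on an Orbitrap Elite, run data-dependent. Beforehand, lysates in 1% Triton X-100/HEPES buffer were incubated overnight at 4° C with anti-FLAG or […] and pulled down on Protein A/G magnetic beads for 4 h. Duplicate biological replicates.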

| C-term flag | Molecule |
| --- | --- |
| 23 | B1 |
| 10 | B2 |
| 0 | B3 |
| 27 | B4 |
| 20 | B5 |
| 5 | B6 |
| 14 | B7 |
| 3 | B8 |
| 5 | B9 |
| 18 | B10 |
| 0 | B11 |

Same assay, conditions: Co-IP with FLAG antibody, N-terminally FLAG-tagged B3GNT2; mass spectrometry count, unit not given

| N-term FLAG | Molecule |
| --- | --- |
| 2 | B1 |
| 10 | B2 |
| 3 | B3 |
| 0 | B4 |
| 6 | B5 |
| 9 | B6 |
| 9 | B7 |
| 4 | B8 |
| 9 | B9 |
| 9 | B10 |
| 3 | B11 |

Same assay, conditions: Co-IP with IgG control antibody, C-terminally FLAG-tagged B3GNT2; mass spectrometry count, unit not given

| C-term IgG | Molecule |
| --- | --- |
| 0 | B1 |
| 0 | B2 |
| 0 | B3 |
| 0 | B4 |
| 0 | B5 |
| 0 | B6 |
| 0 | B7 |
| 2 | B8 |
| 3 | B9 |
| 0 | B10 |
| 0 | B11 |

Same assay, conditions: Co-IP with IgG control antibody, N-terminally FLAG-tagged B3GNT2; mass spectrometry count, unit not given

| N-term IgG | Molecule |
| --- | --- |
| 0 | B1 |
| 0 | B2 |
| 0 | B3 |
| 0 | B4 |
| 0 | B5 |
| 5 | B6 |
| 0 | B7 |
| 0 | B8 |
| 2 | B9 |
| 0 | B10 |
| 0 | B11 |
